From paper PMC8145246 (Toxins, 2021)

B1: MazF-mt1 toxin (M. tb), purified protein (enzyme)
chain: MMRRGEIWQVDLDPARGSEANNQRPAVVVSNDRANATATRLGRGVITVVPVTSNIAKVYPFQVLLSATTTGLQVDCKAQAEQIRSIATERLLRPIGRVSAAELAQLDEALKLHLDLWS

Columns and labels:
crystal structure = target: the molecule itself; experiment: crystal structure
[1] = target: B1; experiment: crystal structure; settings: both partners purified

Binder	binding result (crystal structure)	binding result [1]
B1	binds	–
TLEDDYANAWQEWSAAG [MazE-mt1 α3 peptide (Thr42-Gly58)]	–	binds
